Experimental findings from paper PMC3674325 are described below.

For series [1], the target named is T1, APOBEC3A (A3A) wild-type (Homo sapiens, UniProt P31941 1-199). Description: NMR titration.
The target of series [2] is T1, APOBEC3A (A3A) wild-type. As to the kind of experiment: NMR titration. This is another data set of the same source.
Series [3] has as its target T1, APOBEC3A (A3A) wild-type. As to the kind of experiment: EMSA. (In EMSA bound probe runs differently from free probe, usually more slowly.)
Series [4] deals with APOBEC3A E72Q (Homo sapiens, UniProt P31941 1-199, E72Q). Description: NMR titration.

Broadly, the Kd is a measure of binding affinity in units of concentration. Read a high Kd as weaker binding.

T1 sequence (P31941 whole entry): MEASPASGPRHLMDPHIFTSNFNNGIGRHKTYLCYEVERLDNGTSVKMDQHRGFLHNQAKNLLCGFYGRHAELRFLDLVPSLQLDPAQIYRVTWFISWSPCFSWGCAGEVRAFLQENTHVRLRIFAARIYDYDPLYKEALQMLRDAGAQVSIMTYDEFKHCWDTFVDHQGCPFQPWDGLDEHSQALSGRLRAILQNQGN
APOBEC3A E72Q, sequence (P31941 whole entry E72Q): as the sequence (P31941 whole entry) above, with E72Q counted along it

Turning to ATTTUATTT (ssDNA, dU at position 5) [ATTTUATTT (9-nt product)], the Kd in series [1] stood at 58 ± 8 µM.
The molecule AAACAAAAA (ssDNA, C deaminated to dU during titration) [AAACAAAAA (value is for dU-containing product)] had a dissociation constant Kd in series [2] of 161 ± 19 µM.
With ATTATTTUATTTATT (ssDNA, dU at position 8) [ATTATTTUATTTATT (15-nt product)], in series [1], the Kd was determined as 57 ± 11 µM.
For the molecule AAACCCAAA (ssDNA, C deaminated to dU during titration) [AAACCCAAA (value is for dU-containing product)], the affinity in series [2], expressed as Kd, was 91 ± 15 µM.
The same measure, in the same setting: with AAACCAAAA (ssDNA, C deaminated to dU during titration) [AAACCAAAA (value is for dU-containing product)] the figure was 94 ± 11 µM.
In series [3], ATTATTATTATTATTATTATTTCATTTATTTATTTATTTA (ssDNA) [40-nt ssDNA JL895] yielded a Kd of roughly 80 µM.
TCATTT (ssDNA, C at position 2 converted to dU during titration) [TCATTT (6-nt; value is for dU product)]: the dissociation constant (Kd) in series [2] worked out at 194 ± 18 µM.
Consider AUUAUUAUUAUUAUUAUUAUUUCAUUUAUUUAUUUAUUUA (ssRNA) [40-nt ssRNA JL931], for which the “apparent K (half saturation)” value in series [3] is roughly 40 µM.
The molecule ATTATTTCATTTATT (ssDNA) [ATTATTTCATTTATT (15-nt substrate)] displayed a Kd in series [4] of 55 ± 11 µM.
